Article PMC4083092

Columns and labels:
[1] = molecular target: T1, CPEB1 RRM12 (tandem RRMs) (Homo sapiens, UniProt Q9BZB8 285-355+361-514, internal_change); assay: NMR titration and solution structure
[2] = molecular target: T1, CPEB1 RRM12 (tandem RRMs); assay: NMR
[3] = molecular target: CPEB1 ZZ domain (isolated) (Homo sapiens, UniProt Q9BZB8 503-566); assay: NMR titration
[4] = molecular target: T2, CPEB4 RRM12 (tandem RRMs) (Homo sapiens, UniProt Q17RY0-3 54-256); assay: NMR titration
T2 sequence: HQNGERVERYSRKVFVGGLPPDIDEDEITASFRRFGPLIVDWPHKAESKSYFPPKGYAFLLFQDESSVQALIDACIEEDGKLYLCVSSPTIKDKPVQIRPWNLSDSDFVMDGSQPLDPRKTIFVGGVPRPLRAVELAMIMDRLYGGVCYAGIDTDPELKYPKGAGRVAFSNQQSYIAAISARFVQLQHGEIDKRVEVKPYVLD

[5] = molecular target: T1, CPEB1 RRM12 (tandem RRMs); assay: NMR titration

UUUUA (ssRNA)
binding result [1]: binds

CUUUA (ssRNA)
binding result [2]: binds

UUUUUAU (ssRNA) [UUUUUAU (consensus CPE)]
binding result [3]: no binding

UUUUAU (ssRNA) [UUUUAU (consensus CPE)]
binding result [4]: binds
binding result [5]: binds
